Measurements reported in IntAct's records for PubMed 23123112.

B1: Protein SLM4 (Saccharomyces cerevisiae), P38247 (parent)
chain: MVMLHSKNVKGFLENTLKPYDLHSVDFKTSSLQSSMIITATNGGILSYATSNNDVPKNSINEINSVNNLKMMSLLIKDKWSEDENDTEEQHSNSCYPVEIDSFKTKIYTYEMEDLHTCVAQIPNSDLLLLFIAEGSFPYGLLVIKIERAMRELTDLFGYKLG
partner: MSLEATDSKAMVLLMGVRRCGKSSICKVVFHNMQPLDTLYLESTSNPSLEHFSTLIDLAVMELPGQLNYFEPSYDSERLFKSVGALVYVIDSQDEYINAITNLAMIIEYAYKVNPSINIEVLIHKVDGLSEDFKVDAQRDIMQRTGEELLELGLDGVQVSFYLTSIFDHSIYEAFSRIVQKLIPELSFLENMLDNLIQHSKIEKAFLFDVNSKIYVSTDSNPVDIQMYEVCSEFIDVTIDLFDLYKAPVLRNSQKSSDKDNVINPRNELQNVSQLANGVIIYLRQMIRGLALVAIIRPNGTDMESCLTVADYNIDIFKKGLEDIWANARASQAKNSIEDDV
B2: Protein SLM4 (Saccharomyces cerevisiae), P38247 (parent)
chain: B1 chain
partner: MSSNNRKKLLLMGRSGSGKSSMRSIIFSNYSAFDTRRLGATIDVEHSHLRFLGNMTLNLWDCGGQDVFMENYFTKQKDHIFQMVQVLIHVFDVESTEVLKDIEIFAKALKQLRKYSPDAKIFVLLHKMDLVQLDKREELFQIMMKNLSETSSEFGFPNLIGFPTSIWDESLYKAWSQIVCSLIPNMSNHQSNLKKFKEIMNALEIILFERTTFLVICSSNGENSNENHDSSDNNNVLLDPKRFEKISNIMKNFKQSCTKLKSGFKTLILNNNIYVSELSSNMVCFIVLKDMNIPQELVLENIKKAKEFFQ

Variants of: B1
Settings: with ragcd_yeast GTR2, P53290
With N67A;N68A;K70A;M71A the “effect of a mutation on the interaction” value was “decreasing interaction strength”.

Variants of: B2
Settings: with ragab_yeast GTR1, Q00582
In the case of N67A;N68A;K70A;M71A, the “effect of a mutation on the interaction” value is reported as “decreasing interaction strength”.
